Source: patent publication US5827734

Molecular target: murine MBP::ob fusion protein (+Gln), construct pCZR90 (mouse)

Bovine Factor Xa (from UniProt P00743) (enzyme)
Factor Xa cleavage of the MBP::ob fusion protein: 9%
